Data as given in paper PMC11530643 (Communications Biology, 2024).
Ends that are not written are not given here. * marks the point of attachment. MTSL = spin label from S-(1-oxyl-2,2,5,5-tetramethyl-2,5-dihydro-1H-pyrrol-3-yl)methyl methanesulfonothioate, attached to the cysteine side chain, CC1(C)C=C(CS*)C(C)(C)N1[O]

Target: FOXO4 forkhead domain (FHD; 95–195 a.a.) (human, UniProt P98177 95-195)
Assay: NMR paramagnetic relaxation enhancement

FOXO4 forkhead domain (FHD; 95–195 a.a.), sequence (P98177 95-195): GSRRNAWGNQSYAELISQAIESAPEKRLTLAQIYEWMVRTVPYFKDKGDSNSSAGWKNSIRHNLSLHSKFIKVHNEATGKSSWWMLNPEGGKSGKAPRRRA

binding result: binds
Binder: DLDLDMYMENLEC(MTSL)DMDNIISDLMDEGEGLDFNFEPDP (domain or fragment, human, UniProt P98177 469-505, looked up) [FOXO4 conserved region 3 (CR3; 469–505 a.a.), MTSL-labelled at C481]
